Changes are numbered by the printed parent chain. Numbers in names are those of the source. Where two headings read alike, the source gives them in different places. Values belong to the binder of their own block, whether it stands above or below them.
What was measured:
[1] = molecular target: T1, mature myostatin (recombinant, dimeric) (mouse polyprotein used for in-house …, UniProt O08689 268-376); experiment: BIAcore, medium density myostatin surface, antibody analyte, 1:1 model (poor fits)
T1 construct: also called GDF-8; recombinant myostatin
T1 sequence: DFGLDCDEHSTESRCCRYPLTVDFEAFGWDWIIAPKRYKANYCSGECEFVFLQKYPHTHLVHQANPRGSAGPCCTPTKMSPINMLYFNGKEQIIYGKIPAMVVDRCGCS
Protocol: (§1) Purified H0L0, H1L2 and H2L2 bound recombinant myostatin by BIAcore™ Recombinant myostatin was immobilised at three different densities (low, medium and high, to give R-max values of approximately 35, 120 and 350 RU's respectively) onto a BIAcore™ chip. Antibodies were passed over at 256, 64, 16, 4 and 1 nM. 0 nM antibody was used for double referencing and data was fitted to the 1:1 model.

[2] = molecular target: T1, mature myostatin (recombinant, dimeric); experiment: BIAcore, low density myostatin surface, antibody analyte, 1:1 model
Protocol: as §1

[3] = molecular target: T1, mature myostatin (recombinant, dimeric); experiment: BIAcore, high density myostatin surface, antibody analyte, 1:1 model (poor fits)
Protocol: as §1

[4] = molecular target: T1, mature myostatin (recombinant, dimeric); experiment: competition ELISA, biotinylated myostatin on streptavidin, competitor 10B3
Protocol: (§2) A 96-well ELISA plate was coated at 4° C. overnight with 2.5 μg/ml polyclonal Antibody to Myostatin (R&D Systems AF788). This plate was then washed 3-times in wash buffer (PBS, 0.1% Tween-20) and blocked for 1 hour at room temperature with block solution (PBS, 0.1% Tween-20+1% bovine serum albumin [BSA]). Then, myostatin was added at 1 μg/ml in block buffer during 1 hour followed by 3-times in wash buffer. Antibodies were then titrated out to a suitable concentration range (approximately 10 to 0.01 μg/ml), added to the plate and incubated for 1 hour at room temperature. The plate was then washed 3-times in wash buffer. An anti-human kappa light chain HRP-conjugated antibody (Sigma A7164, used according to the manufacturer's instructions) was used to detect binding of humanized or chimeric antibodies, such as 10B3 chimera (HcLc) or H0L0. The plate was then washed 3-times in wash buffer and developed with an OPD substrate (according to the manufacturer's instructions) and read at 490 nm on a plate reader.
(§3) The protocol set out in 6.7 was used but the plates were initially coated at 4° C. overnight with 5 μg/ml of streptavidin. Biotinylated myostatin was added at 0.3 μg/ml block buffer during 1 hour followed by 3-times in wash buffer. 10B3 (final concentration of 0.2 μg/ml) was added into each well and mixed with antibodies titrated out to a suitable concentration range (approximately 10 to 0.01 μg/ml). An anti-mouse HRP-conjugated antibody (DAKO P0260, used according to the manufacturer's instructions) was used to detect binding of the 10B3 antibody.

[5] = molecular target: T1, mature myostatin (recombinant, dimeric); experiment: competition ELISA, myostatin captured by polyclonal antibody, competitor 10B3
Protocol: as §2
The protocol set out in 6.7 was used with the addition of 10B3 (final concentration of […]) to each well and mixed with the antibodies titrated out to a suitable concentration range (approximately 10 to 0.01 μg/ml). An anti-mouse HRP-conjugated antibody (DAKO P0260, used according to the manufacturer's instructions) was used to detect binding of the 10B3 antibody.

[6] = molecular target: T1, mature myostatin (recombinant, dimeric); experiment: cell-based or functional assay
[7] = molecular target: T1, mature myostatin (recombinant, dimeric); experiment: BIAcore T100 full kinetics, high density myostatin surface, Bivalent model
Protocol: The CDRH3 variants were passed over all three surfaces at 256 nM, 64 nM, 16 nM, 4 nM, 1 nM with a buffer injection (i.e. 0 nM) used for double referencing, regeneration was using 100 mM phosphoric acid. The data was fitted to the Bivalent model inherent to the T100 Biacore machine and was run using HBS-EP at 25° C.

[8] = molecular target: T1, mature myostatin (recombinant, dimeric); experiment: competition ELISA, directly coated myostatin, competitor 10B3
Protocol: as §2
as §3, with “0.2” for “5”, “of” for “of streptavidin. Biotinylated”, “(recombinant in-house, see 1.1 above).” for “was added at 0.3 μg/ml block buffer during 1 hour followed by 3-times in wash buffer.”, “0.3” for “0.2”

[9] = molecular target: T1, mature myostatin (recombinant, dimeric); experiment: myostatin binding ELISA, 10 ng/well recombinant myostatin coated, CHOK1 supernatants, anti-human kappa HRP, OPD, A490 (Examples 4.1, 4.2)
Protocol: The myostatin binding ELISA was carried out approximately according to this protocol. A 96-well ELISA plate was coated at 4° C. overnight with 10 ng/well recombinant myostatin. This plate was then washed 3-times in wash buffer (PBS, 0.1% Tween-20). The wells were blocked for 1 hour at room temperature with block solution (PBS, 0.1% Tween-20+1% bovine serum albumin [BSA]), before washing 3-times in wash buffer. Antibodies were then titrated out to a suitable concentration range (approximately 100 to 0.001 μg/ml), added to the plate and incubated for 1 hour at room temperature. The plate was then washed 3-times in wash buffer. An anti-mouse IgG HRP-conjugated antibody (P0260 by Dako, this reagent was used according to the manufacturer's instructions) was used to detect binding of mouse antibodies, such as 10B3. An anti-human kappa light chain HRP-conjugated antibody (A7164 by Sigma Aldridge, this reagent was used according to the manufacturer's instructions) was used to detect binding of humanized or chimeric antibodies, such as 10B3 chimera or H0L0. The plate was then washed 3-times in wash buffer and developed with an OPD substrate (from Sigma, used according to the manufacturer's instructions) and read at 490 nm on a plate reader.

[10] = molecular target: T1, mature myostatin (recombinant, dimeric); experiment: cell-based or functional assay; remark: listed apart in the source
[11] = molecular target: T1, mature myostatin (recombinant, dimeric); experiment: cell-based or functional assay; remark: listed apart in the source
[12] = molecular target: T1, mature myostatin (recombinant, dimeric); experiment: BIAcore, low density myostatin surface, methods as in 4.3

B1: H1L2 (antibody, human IgG1, kappa)
heavy: not shown
light: DIQMTQSPSSLSASVGDRVTITCKASQDINSYLSWFQQKPGKAPKSLIYRANRLVDGVPSKFSGSGSGTDYTLTISSLQPEDFATYYCLQCDEFPLTFGQGTKLEIKRTVAAPSVFIFPPSDEQLKSGTASVVCLLNNFYPREAKVQWKVDNALQSGNSQESVTEQDSKDSTYSLSSTLTLSKADYEKHKVYACEVTHQGLSSPVTKSFNRGEC
notes: Humanised, human IgG1 wild type/kappa
Kd [1]: 5.06 nM
koff [1]: 0.000693 s⁻¹
kon [1]: 137000 M⁻¹ s⁻¹
Kd [2]: 15.1 nM
koff [2]: 0.00332 s⁻¹
kon [2]: 220000 M⁻¹ s⁻¹
Kd [3]: 2.42 nM
koff [3]: 0.000223 s⁻¹
kon [3]: 92200 M⁻¹ s⁻¹

B2: H2L2-C91S_V102N (antibody, human IgG1, kappa, name in Kabat numbering, V domains shown)
VH: QVQLVQSGAEVKKPGASVKVSCKASGYSFTGYFMHWVRQAPGQGLEWMGNIYPYNGVSNYNQRFKARVTMTTDTSTSTAYMELRSLRSDDTAVYYCARRYYYGTGPADWYFDNWGQGTLVTVSS
VL: DIQMTQSPSSLSASVGDRVTITCKASQDINSYLSWFQQKPGKAPKSLIYRANRLVDGVPSKFSGSGSGTDYTLTISSLQPEDFATYYCLQSDEFPLTFGQGTKLEIKR
ranking order top (1) to bottom (5), myostatin competition ELISA [4]: 4
ranking order top (1) to bottom (5), myostatin competition ELISA [5]: 2
Mean IC50, A204 in vitro activity assay (5 nM myostatin) [6]: 5.51 nM
fold of affinity against F100G_Y [7]: ≤ 2 fold
ranking order top (1) to bottom (5), myostatin competition ELISA [8]: 3

B5: H2L2-C91S_F100G_Y (antibody, human IgG1, kappa)
heavy: not shown
light: B1 light with C91S
notes: Fc not disabled
ranking order top (1) to bottom (5), myostatin competition ELISA [4]: 2
Mean IC50, A204 in vitro activity assay [10]: 11.1 nM
ranking order top (1) to bottom (5), myostatin competition ELISA [5]: 4
Mean IC50, A204 in vitro activity assay (5 nM myostatin) [6]: 3.64 nM
ranking order top (1) to bottom (5), myostatin competition ELISA [8]: 2

B7: H2L2-C91S_G99D (antibody, human IgG1, kappa, name in Kabat numbering, V domains shown)
VH: B2 VH with G103D, N113V
VL: B2 VL
ranking order top (1) to bottom (5), myostatin competition ELISA [5]: 5
fold of affinity against F100G_Y [7]: ≤ 2 fold

B9: H2L2-C91S_P100B_I (antibody, human IgG1, kappa, V domains shown)
VH: B2 VH with P106I, N113V
VL: B2 VL
ranking order top (1) to bottom (5), myostatin competition ELISA [4]: 3
Mean IC50, A204 in vitro activity assay (5 nM myostatin) [6]: 4.53 nM
ranking order top (1) to bottom (5), myostatin competition ELISA [8]: 5

B10: H2L2-C91S_G100A_K (antibody, human IgG1, kappa, V domains shown)
VH: B2 VH with G105K, N113V
VL: B2 VL
fold of affinity against F100G_Y [7]: ≤ 2 fold

B12: H2L2-C91S_Y96L (antibody, human IgG1, kappa, name in Kabat numbering, V domains shown)
VH: B2 VH with Y100L, N113V
VL: B2 VL
ranking order top (1) to bottom (5), myostatin competition ELISA [4]: 5
fold of affinity against F100G_Y [7]: ≤ 2 fold

B13: H2L2-C91S_G99S (antibody, human IgG1, kappa, name in Kabat numbering, V domains shown)
VH: B2 VH with G103S, N113V
VL: B2 VL
fold of affinity against F100G_Y [7]: ≤ 2 fold

Further lines, results first:

ranking order top (1) to bottom (5), myostatin competition ELISA [4]: 1
ranking order top (1) to bottom (5), myostatin competition ELISA [5]: 3
Mean IC50, A204 in vitro activity assay (5 nM myostatin) [6]: 4.22 nM
fold of affinity against F100G_Y [7]: ≤ 2 fold
ranking order top (1) to bottom (5), myostatin competition ELISA [8]: 4
B3: H2L2-C91S_V102S (antibody, human IgG1, kappa, name in Kabat numbering, V domains shown)
VH: B2 VH with N113S
VL: B2 VL

binding result [9]: binds
B4: H2L3 (antibody, human IgG1, kappa)
heavy: not shown
light: B1 light with Y71F, Q100A
notes: as for B1

ranking order top (1) to bottom (5), myostatin competition ELISA [5]: 1
Mean IC50, A204 in vitro activity assay (5 nM myostatin) [6]: 4.24 nM
ranking order top (1) to bottom (5), myostatin competition ELISA [8]: 1
B6: H2L2-C91S_P100B_F (antibody, human IgG1, kappa, V domains shown)
VH: B2 VH with P106F, N113V
VL: B2 VL

binding result [9]: binds
B8: H2L1 (antibody, human IgG1, kappa)
heavy: not shown
light: B1 light with G16R, Y71F
notes: as for B1

Mean IC50, A204 in vitro activity assay [11]: 10.4 nM
Kd [12]: 33.3 nM
B11: H2L2 N54Q & C91S (H2L2-N54Q-C91S) (antibody, human IgG1, kappa, V domains shown)
VH: B2 VH with N55Q, N113V
VL: B2 VL

binding result [9]: binds
B14: H2L0 (antibody, human IgG1, kappa)
heavy: not shown
light: B1 light with Y71F
notes: as for B1
